In one data set the target is sdAbs. Conditions: read-out: affinity of sdAb for hapten; cited from earlier work.
Data set [1] has as its system MinoCAR-transduced PBMC against SupT1-EGFR+ target cells. It is filed as cell-based. Conditions: 0.1, 1 and 10 μM, 24 h, 1:2 E/T. As to the method:
Transduced CAR T cells were determined by staining for the transduction marker RQR8 and normalized by the addition of nontransduced T cells. Effector cells were cocultured with 5.0 × 10^4 number of target cells (SupT1-NT, SupT1-EGFR+, SKOV3-mKate) to achieve the desired effector cell to target ratio. […] Cocultures were incubated for 24–72 h at 37 °C and 5% CO2. After incubation, plates were centrifuged at 400g for 5 min, and the supernatant containing secreted cytokines was collected for cytokine analysis. Cells were stained with anti-hCD34-APC and anti-CD3-PeCy7 to differentiate effector T cells and target cells. Cells were washed with 300 μL o PBS and stained with SYTOX Blue Dead Cell Stain dye. The percentage of target cell survival was measured relative to the number of live target cells cocultured with nonspecific CAR T cells or nontransduced PBMCs.

For data set [2], the target named is anti-minocycline single-domain antibody clone 1 (aMinoC1 sdAb) (alpaca).
The target is the same in data set [3]. This is another data set of the same source.
For data set [4] the target is unchanged. Briefly: SPR; Biacore T200; aMino sdAbs immobilized on a CM5 chip (4300-4600 RU); 1x HBS-EP+; analyte from 2.5 uM in 2-fold serial dilutions, 150 s at 30 uL/min, 150 s dissociation; 1:1 Langmuir model. In general terms: In SPR one partner is held on a chip, and binding of the other changes the refractive index at the surface.
Data set [5] shares this target. The source holds these as a separate data set.
Data set [6] has as its system HEK-293T transduced with the aMinoC1 transmembrane receptor. Briefly: Flow cytometry of peptide-muIgG2a Fc binding to cells with aMinoC1 transmembrane receptor. Conditions: GWARA, HWAQA, PWAYS, QWAMM; increasing minocycline; caffeine 100 μM. It is filed as cell-based, human. How it is done:
Flow cytometry was performed using the MACSQuant Analyzer 10 or MACSQuant X (Miltenyi Biotec). All flow cytometry data was analyzed using FlowJo v.7.6.2 software (Tree Star Inc., Ashland, OR). Cell staining was carried out by incubation with PBS containing the recommended concentration of antibodies at RT for 30 min. PBS washes were carried out between antibody staining. Cell viability was determined using viability dye SYTOX Blue Dead Cell Stain (ThermoFisher) prior to flow cytometric analysis. Cells were first gated for singlet population identified by FSC-H and FSC-A. Next, live cells were identified using a viability dye, followed by gating for target cell populations. The antibodies used in the study are as follows: CD3 PECy7 (Biolegend, 317334), Human CD34 APC-conjugated antibody (R&D system, FAB7227A), Human CD34 Alexa Fluor 488-conjugated antibody (R&D system, FAB7227G), Streptavidin PE (Biolegend, 405204), APC antihuman EGFR antibody (Biolegend, 352905), Alexa Fluor 488 antihuman EGFR antibody (Biolegend, 352907), PE anti-HA.11 Epitope Tag antibody (Biolegend, 901517), Anti-M13-HRP (Sino Biologics, 1197 mm05T-H), Anti-Myc-HRP (Genscript, A00863), and SYTOX Blue Dead Cell Stain (ThermoFisher, S10274).

In a further data set the test system is aMinoC1-peptide complex. Nature of the data set: SPR rechallenge: small-molecule-driven dissociation of peptide-Fc from immobilized aMinoC1. It is filed as binding. Conditions: peptide-Fc 100 nM, small molecule 1 μM. As to the method:
Binding assays were carried out using 1x HBS-EP+ running buffer. Various concentrations (2.5 μM with 2-fold serial dilutions) of the analyte were injected for 150 s at 30 μL/min with 150 s dissociation time. Glycine-HCl (pH 2.0) was used as the regeneration buffer for the sensor chips. For the rechallenge experiment, aMinoC1 was immobilized on a CM5 sensor chip and CX7C peptide-Fc conjugates were loaded at 100 nM and injected as the analyte for 150 s at 30 μL/min. Following the injection of peptide-Fc, a small molecule at 1 μM was injected for 300 s at 30 μL/min, using dual injection function on a Biacore 8k instrument, to dissociate the peptide-Fc from the aMinoC1-peptide complex. The system was then washed using HBS-P^+ buffer for 300 s at 30 μL/min prior to rechallenge with peptide-Fc. The cycle was repeated three times following a final dissociation step of 300 s. For the alanine scanning experiments, the anti-minocycline antibody (sdAb-muIgG2a-Fc fusion) was captured on a Protein A series S sensor chip, to a density of 3000 RU. […] Glycine-HCl (pH 1.5) was used as the regeneration buffer. In each case, flow cell 1 was used for reference subtraction, and a “0 concentration” sensogram of buffer alone was used as a double reference subtraction to factor for drift. Data analysis was carried out using Biacore T200 Evaluation Software, version 3.0, and Biacore Insight evaluation software. The 1:1 Langmuir binding model was used to calculate the association (ka), dissociation (kd) rate constants, and equilibrium dissociation constant (KD).

In the next data set the test system is aMinoC22 sdAb. Nature of the data set: SPR of related small molecules against aMinoC22. Conditions: molecules closely related to minocycline. The class given is binding, alpaca. How it is done: (§1) Binding assays were carried out using 1x HBS-EP+ running buffer. Various concentrations (2.5 μM with 2-fold serial dilutions) of the analyte were injected for 150 s at 30 μL/min with 150 s dissociation time. Glycine-HCl (pH 2.0) was used as the regeneration buffer for the sensor chips. For the rechallenge experiment, aMinoC1 was immobilized on a CM5 sensor chip and CX7C peptide-Fc conjugates were loaded at 100 nM and injected as the analyte for 150 s at 30 μL/min. Following the injection of peptide-Fc, a small molecule at 1 μM was injected for 300 s at 30 μL/min, using dual injection function on a Biacore 8k instrument, to dissociate the peptide-Fc from the aMinoC1-peptide complex. The system was then washed using HBS-P^+ buffer for 300 s at 30 μL/min prior to rechallenge with peptide-Fc. The cycle was repeated three times following a final dissociation step of 300 s. For the alanine scanning experiments, the anti-minocycline antibody (sdAb-muIgG2a-Fc fusion) was captured on a Protein A series S sensor chip, to a density of 3000 RU. […] Glycine-HCl (pH 1.5) was used as the regeneration buffer. In each case, flow cell 1 was used for reference subtraction, and a “0 concentration” sensogram of buffer alone was used as a double reference subtraction to factor for drift. Data analysis was carried out using Biacore T200 Evaluation Software, version 3.0, and Biacore Insight evaluation software. […]

The next data set relates to aMinoC1 sdAb. Briefly: SPR of peptide-Fc or small-molecule analytes against aMinoC1. The class given is binding, alpaca. Conditions: molecules closely related to minocycline. As to the method:
as §1

A further data set addresses minocycline. Briefly: SPR.
For data set [7], the target named is T1, GWARA CX7C peptide-muIgG2a-Fc fusion.
T1 chain: ACPGWARAFC
Nature of the data set: ELISA. Conditions: chain shown with the change. For orientation: ELISA stands for enzyme-linked immunosorbent assay.

Data set [8] has as its target T2, HWAQA CX7C peptide-muIgG2a-Fc fusion (disulfide 1-9 (inferred); also: fused to muIgG2a Fc, end not given here).
T2 chain: CPHWAQAFC
Nature of the data set: SPR.

Data set [9] addresses T3, GWARA CX7C peptide-muIgG2a-Fc fusion (disulfide 2-10 (inferred); also: fused to muIgG2a Fc, end not given here).
T3 chain: ACPGWARAFC
Nature of the data set: SPR.

In data set [10] the target is T4, PWAYS CX7C peptide-muIgG2a-Fc fusion (disulfide 1-9 (inferred); also: fused to muIgG2a Fc, end not given here).
T4 chain: CPPWAYSFC
Briefly: SPR.

For data set [11], the target named is T5, QWAMM CX7C peptide-muIgG2a-Fc fusion (disulfide 1-9 (inferred); also: fused to muIgG2a Fc, end not given here).
T5 chain: CPQWAMMFC
Nature of the data set: SPR.

Here are results for 19 molecules from publication PMC10877577 (ACS Chemical Biology, 2024).

“Also recorded” adds a separate entry of the source. Bridges are numbered along the chain shown (N, C = ends). Where no end group is shown, it is not given here.

As to `CN(Cc1cnc2nc(N)nc(N)c2n1)c1ccc(C(=O)N[C@@H](CCC(=O)O)C(=O)O)cc1` [methotrexate], the Kd at sdAbs was 29 to 515 nM. Further, in [1], the “effect of other small molecules on MinoCAR cytotoxicity” value (“effect of other small molecules” for short) is given as “not affected”.
Turning to auxin, the Kd on sdAbs is 500 to 20000 nM.
GWARA CX7C peptide-muIgG2a-Fc fusion: the IL12 secreted by T cells that co-express GWARA-flexi-IL12 and aMinoC1-KDEL without minocycline (retention); released up to 150 pg/mL on day 2 and 2.2 ug/mL on day 7 with minocycline up to 2.5 uM in data set [2] was 450 pg/mL. The molecule also came in with an IFN-γ secretion by PBMCs transduced with the aMinoC1/GWARA-MyD88/CD40 module against the SG3S-peptide negative control, no minocycline; tuned down about 2-fold by increasing minocycline in data set [3] of 520 pg/mL. This molecule also returned a Kd in data set [4] of 111 nM. Moreover, in [5], the IFN-y release by MinoUniCAR PBMCs (aMinoC1-CD8stk-CD28TM-CD28-41BBz) with the soluble aEGFR sdAb-GWARA adaptor, 0 uM against 10 uM minocycline is 1570 pg/mL.
For `CC(=O)OC[C@]12[C@H](O)C(=O)C(C)=C[C@H]1O[C@@H]1[C@H](O)C[C@@]2(C)[C@]12CO2` [15-acetyl-deoxynivalenol], the Kd at sdAbs was 5000 to 215000 nM.
Consider `Nc1c(Cl)c(Cl)nc(C(=O)O)c1Cl` [picloram], for which the Kd on sdAbs was 3000 to 354000 nM.
As for QWAMM CX7C peptide-muIgG2a-Fc fusion, the Kd in data set [4] worked out at 209 nM.
Still for that read-out and setting: with HWAQA CX7C peptide-muIgG2a-Fc fusion the figure was 328 nM.
For `Cn1c(=O)c2c(ncn2C)n(C)c1=O` [caffeine], in [6], the “peptide-muIgG2a Fc binding to membrane-bound aMinoC1 in presence of small molecule” value was “no peptide-binding inhibition; also recorded: did not result in a decrease in peptide binding”. The “effect of other small molecules” value in data set [1] is recorded as “not affected”.
For `C[C@H]1c2cccc(O)c2C(=O)C2=C(O)[C@]3(O)C(=O)C(C(N)=O)=C(O)[C@@H](N(C)C)[C@@H]3[C@@H](O)[C@@H]21` [doxycycline], in the data set with aMinoC1-peptide complex, the “GWARA-Fc dissociation from immobilized aMinoC1 on small-molecule injection” value is listed as “No enhanced dissociation”; the “peptide-Fc (HWAQA, PWAYS and QWAMM) dissociation from immobilised aMinoC1 on small-molecule injection” value was “No enhanced dissociation”. Besides, the “binding to aMinoC22 (SPR)” value with aMinoC22 sdAb is given as “Neither sdAb showed an interaction; also recorded: lack of binding”. Moreover, the “effect of other small molecules” value in data set [1] is listed as “not affected”. Besides, the “binding to aMinoC1 (SPR)” value with aMinoC1 sdAb is “Neither sdAb showed an interaction; also recorded: lack of binding; also recorded: without cross-reactivity”.
`O=C(Nc1ccc(Cl)cc1)Nc1ccc(Cl)c(Cl)c1` [triclocarbon]: the Kd at sdAbs was 0.98 to 1.37 nM.
In data set [4], PWAYS CX7C peptide-muIgG2a-Fc fusion had a Kd of 283 nM.

B1: anti-minocycline single-domain antibody clone 1 (aMinoC1 sdAb) R64A (protein)
chain: QVQLESGGGLVQPGSSLRLSCAASGRTFSSYNIGWFRQAPKEREFVAAISWSGAATYYADSVKGRFTISRDNAKNTVYLQMNSLKPEDTAVYSCAAGRGWGTEAILDYWGQGTQVSSA
Consider B1, for which the ratio to parent in the data set with minocycline was determined as 1.15; in data set [7], 0.18.

B2: anti-minocycline single-domain antibody clone 1 (aMinoC1 sdAb) R28A (protein)
chain: QVQLESGGGLVQPGSSLRLSCAASGATFSSYNIGWFRQAPKEREFVAAISWSGARTYYADSVKGRFTISRDNAKNTVYLQMNSLKPEDTAVYSCAAGRGWGTEAILDYWGQGTQVSSA
For B2, the values for the ratio to parent (with minocycline; in [7]) were 1.28 and 0.17, respectively.

B3: anti-minocycline single-domain antibody clone 1 (aMinoC1 sdAb) A63S (protein)
chain: QVQLESGGGLVQPGSSLRLSCAASGRTFSSYNIGWFRQAPKEREFVAAISWSGSRTYYADSVKGRFTISRDNAKNTVYLQMNSLKPEDTAVYSCAAGRGWGTEAILDYWGQGTQVSSA
Regarding B3, the ratio to parent is 0.77 with minocycline and 0.12 in [7].

B4: anti-minocycline single-domain antibody clone 1 (aMinoC1 sdAb) S35A (protein)
chain: QVQLESGGGLVQPGSSLRLSCAASGRTFASYNIGWFRQAPKEREFVAAISWSGARTYYADSVKGRFTISRDNAKNTVYLQMNSLKPEDTAVYSCAAGRGWGTEAILDYWGQGTQVSSA
Consider B4, for which the ratio to parent with minocycline came out at 0.97; in [7] it was 0.15.

B5: anti-minocycline single-domain antibody clone 1 (aMinoC1 sdAb) R108A (protein)
chain: QVQLESGGGLVQPGSSLRLSCAASGRTFSSYNIGWFRQAPKEREFVAAISWSGARTYYADSVKGRFTISRDNAKNTVYLQMNSLKPEDTAVYSCAAGAGWGTEAILDYWGQGTQVSSA
In the case of B5, the values for the ratio to parent (with minocycline; in data set [7]) were 0.88 and 0.17, respectively.

B6: anti-minocycline single-domain antibody clone 1 (aMinoC1 sdAb) (VHH)
VHH: QVQLESGGGLVQPGSSLRLSCAASGRTFSSYNIGWFRQAPKEREFVAAISWSGARTYYADSVKGRFTISRDNAKNTVYLQMNSLKPEDTAVYSCAAGRGWGTEAILDYWGQGTQVSSA
What is called koff is a measure of how fast the partners let go of each other. A lower koff goes with a long-lived complex. In the case of B6, the koff is 0.0058 s⁻¹ in data set [8], 0.017 s⁻¹ in [9], 0.0056 s⁻¹ in data set [10] and 0.0043 s⁻¹ in data set [11].

B7: anti-minocycline single-domain antibody clone 1 (aMinoC1 sdAb) G40A (protein)
chain: QVQLESGGGLVQPGSSLRLSCAASGRTFSSYNIAWFRQAPKEREFVAAISWSGARTYYADSVKGRFTISRDNAKNTVYLQMNSLKPEDTAVYSCAAGRGWGTEAILDYWGQGTQVSSA
For the molecule B7, the ratio to parent was determined as 1.7 in the data set with minocycline and 0.23 in data set [7].

B8: anti-minocycline single-domain antibody clone 1 (aMinoC1 sdAb) W58A (protein)
chain: QVQLESGGGLVQPGSSLRLSCAASGRTFSSYNIGWFRQAPKEREFVAAISASGARTYYADSVKGRFTISRDNAKNTVYLQMNSLKPEDTAVYSCAAGRGWGTEAILDYWGQGTQVSSA
Turning to B8, the ratio to parent came to 1.06 with minocycline and 0.25 in [7].
